Assay results: patent US8859492
Where no end group is shown, it is not given here. [ ]: non-standard residue; d: D form. Cha = N[C@@H](CC1CCCCC1)C(=O)O

Tests used:
[1] = molecular target: HCV protease (hepatitis C virus); assay: apparent binding affinity; method not described
[2] = molecular target: HCV protease (hepatitis C virus); assay: cell-based or functional assay
[3] = molecular target: HCV protease (hepatitis C virus); assay: binding/inhibition curve of FIG. 1 (left); method not described
[4] = molecular target: T1, S. aureus sortase A (S. aureus), Q2FV99; assay: cell-based or functional assay
T1 chain: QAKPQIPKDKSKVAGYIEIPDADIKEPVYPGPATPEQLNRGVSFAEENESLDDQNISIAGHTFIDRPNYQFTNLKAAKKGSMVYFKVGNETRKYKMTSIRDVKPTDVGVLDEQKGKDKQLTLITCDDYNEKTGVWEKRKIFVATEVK

Co-GGH-lisinopril = molecular target: T2, Co-GGH-lisinopril
T2 chain: GGH

[Cu-GGH]^1- = molecular target: T3, [Cu-GGH]^1-
T3 chain: GGH

Cu-GGH-lisinopril = molecular target: T4, Cu-GGH-lisinopril
T4 chain: GGH

Ni-GGH-lisinopril = molecular target: T5, Ni-GGH-lisinopril (not fully specified)
T5 chain: GGH

B1: Cu-GGHGDeLI(Cha)C-CO2^- (peptide)
peptide: GGHGD[dE]LI[Cha]C-OH
modifications: also: Cu complex
Question: Which Ka [1] does the source give for B1 here?
Answer: Its Ka is 2e+06 M⁻¹.

Question: What about the kinact [2] of the same binder?
Answer: The kinact was 0.0014 min⁻¹.

Question: What about the rate constant for inactivation kinact, in the presence of ascorbate/O2 [2] of the same binder?
Answer: The rate constant for inactivation kinact, in the presence of ascorbate/O2 was < 0.083 h⁻¹.

Question: And the Ki [3]?
Answer: The Ki was 500 nM.

B2: Cu-GGHLPET (SEQ ID NO: 102) (peptide)
peptide: GGHLPET
modifications: not checked
Question: With B2 as the binder, how does the activity for catalyst concentration of 1 µM [4] read?
Answer: The activity for catalyst concentration of 1 µM was 0.009.

B3: Cu-GGHLPETG (SEQ ID NO: 103) (peptide)
peptide: GGHLPETG
modifications: not checked
Question: How did the activity for catalyst concentration of 1 µM [4] turn out when B3 was run?
Answer: The activity for catalyst concentration of 1 µM was 0.017.

B4: Cu-GGHGLPET (SEQ ID NO: 104) (peptide)
peptide: GGHGLPET
modifications: not checked
Question: How did the activity for catalyst concentration of 1 µM [4] turn out when B4 was run?
Answer: The activity for catalyst concentration of 1 µM was 0.027.

B5: Cu-… (SEQ ID NO: 105) (peptide)
peptide: GGHGLPETG
modifications: not checked
Question: How did the activity for catalyst concentration of 1 µM [4] turn out when B5 was run?
Answer: Its activity for catalyst concentration of 1 µM is 0.012.

B6: Recombinant human somatic ACE (sACE-1: Leu30-Leu1261, with C-terminal His tag) (protein)
chain: LDPGLQPGNFSADEAGAQLFAQSYNSSAEQVLFQSVAASWAHDTNITAENARRQEEAALLSQEFAEAWGQKAKELYEPIWQNFTDPQLRRIIGAVRTLGSANLPLAKRQQYNALLSNMSRIYSTAKVCLPNKTATCWSLDPDLTNILASSRSYAMLLFAWEGWHNAAGIPLKPLYEDFTALSNEAYKQDGFTDTGAYWRSWYNSPTFEDDLEHLYQQLEPLYLNLHAFVRRALHRRYGDRYINLRGPIPAHLLGDMWAQSWENIYDMVVPFPDKPNLDVTSTMLQQGWNATHMFRVAEEFFTSLELSPMPPEFWEGSMLEKPADGREVVCHASAWDFYNRKDFRIKQCTRVTMDQLSTVHHEMGHIQYYLQYKDLPVSLRRGANPGFHEAIGDVLALSVSTPEHLHKIGLLDRVTNDTESDINYLLKMALEKIAFLPFGYLVDQWRWGVFSGRTPPSRYNFDWWYLRTKYQGICPPVTRNETHFDAGAKFHVPNVTPYIRYFVSFVLQFQFHEALCKEAGYEGPLHQCDIYRSTKAGAKLRKVLQAGSSRPWQEVLKDMVGLDALDAQPLLKYFQPVTQWLQEQNQQNGEVLGWPEYQWHPPLPDNYPEGIDLVTDEAEASKFVEEYDRTSQVVWNEYAEANWNYNTNITTETSKILLQKNMQIANHTLKYGTQARKFDVNQLQNTTIKRIIKKVQDLERAALPAQELEEYNKILLDMETTYSVATVCHPNGSCLQLEPDLTNVMATSRKYEDLLWAWEGWRDKAGRAILQFYPKYVELINQAARLNGYVDAGDSWRSMYETPSLEQDLERLFQELQPLYLNLHAYVRRALHRHYGAQHINLEGPIPAHLLGNMWAQTWSNIYDLVVPFPSAPSMDTTEAMLKQGWTPRRMFKEADDFFTSLGLLPVPPEFWNKSMLEKPTDGREVVCHASAWDFYNGKDFRIKQCTTVNLEDLVVAHHEMGHIQYFMQYKDLPVALREGANPGFHEAIGDVLALSVSTPKHLHSLNLLSSEGGSDEHDINFLMKMALDKIAFIPFSYLVDQWRWRVFDGSITKENYNQEWWSLRLKYQGLCPPVPRTQGDFDPGAKFHIPSSVPYIRYFVSFIIQFQFHEALCQAAGHTGPLHKCDIYQSKEAGQRLATAMKLGFSRPWPEAMQLITGQPNMSASAMLSYFKPLLDWLRTENELHGEKLGWPQYNWTPNSARSEGPLPDSGRVSFLGLDLDAQQARVGQWL
Question: What does the source list for B6?
Answer: second order rate constant for cleavage of full length sACE-1 (SDS-PAGE), ascorbate + H2O2 (Co-GGH-lisinopril): < 1170 M⁻¹ s⁻¹; second order rate constant for cleavage of full length sACE-1 (SDS-PAGE), ascorbate + H2O2 ([Cu-GGH]^1-): < 50 M⁻¹ s⁻¹; second order rate constant for cleavage of full length sACE-1 (SDS-PAGE), H2O2 (Cu-GGH-lisinopril): 250 M⁻¹ s⁻¹; second order rate constant for cleavage of full length sACE-1 (SDS-PAGE), ascorbate (Cu-GGH-lisinopril): < 100 M⁻¹ s⁻¹; second order rate constant for cleavage of full length sACE-1 (SDS-PAGE), ascorbate + H2O2 (Cu-GGH-lisinopril): 1170 M⁻¹ s⁻¹; second order rate constant for cleavage of full length sACE-1 (SDS-PAGE), ascorbate (Ni-GGH-lisinopril): < 1000 M⁻¹ s⁻¹

B7: Cu-GGHGDeLI(Cha)T (peptide)
peptide: GGHGD[dE]LI[Cha]T
modifications: also: Cu complex
Question: Which results are given for B7?
Answer: Ka [1]: 33000 M⁻¹; kinact [2]: 0.042 min⁻¹
